In patent publication US20100196385A1 (AstraZeneca / MedImmune, published 2010):

T1: human Dll1 (human, UniProt O00548 18-723)
T1 construct: whole, on cells
T1 sequence (looked up): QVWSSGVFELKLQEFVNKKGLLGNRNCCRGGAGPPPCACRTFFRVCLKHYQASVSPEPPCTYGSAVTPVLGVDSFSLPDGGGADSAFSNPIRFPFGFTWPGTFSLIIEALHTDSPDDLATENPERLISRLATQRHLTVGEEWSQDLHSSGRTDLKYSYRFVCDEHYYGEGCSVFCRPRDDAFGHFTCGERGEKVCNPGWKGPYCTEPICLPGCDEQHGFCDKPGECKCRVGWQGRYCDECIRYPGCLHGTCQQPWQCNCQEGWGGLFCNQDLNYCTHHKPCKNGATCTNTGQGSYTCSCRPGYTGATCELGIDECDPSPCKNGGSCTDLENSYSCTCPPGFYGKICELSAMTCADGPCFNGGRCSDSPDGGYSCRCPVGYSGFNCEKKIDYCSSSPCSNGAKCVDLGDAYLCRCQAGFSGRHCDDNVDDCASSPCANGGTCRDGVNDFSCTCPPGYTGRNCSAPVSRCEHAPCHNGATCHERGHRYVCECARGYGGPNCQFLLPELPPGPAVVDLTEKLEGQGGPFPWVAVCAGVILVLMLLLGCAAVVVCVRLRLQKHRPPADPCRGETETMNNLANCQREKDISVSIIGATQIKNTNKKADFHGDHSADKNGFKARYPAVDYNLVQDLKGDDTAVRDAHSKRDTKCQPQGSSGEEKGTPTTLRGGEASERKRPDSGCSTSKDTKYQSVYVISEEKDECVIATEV


How the values were obtained:
human Jagged1 [1] = biological target: T2, human Jagged1 (human, UniProt P78504 34-1218); experiment: FACS, 5 µg/ml, 293T cells with human Jagged1 vs mock
T2 construct: whole, on cells
Summary of the method: (§1)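 Read-out is the change in geometric mean fluorescence between mock-transfected and Jagged1- or Dll1-transfected cells. Anti-DLL4 antibodies bound to cells suspended in PBS containing 2% FCS during a 1 h incubation at 4 °C.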

full length human DLL4 [2] = biological target: T3, full length human DLL4 (human, UniProt Q9NR61 27-685); experiment: FACS competition, unlabeled antibody vs competitor Alexa-647 4B4, HEK293 cells with human DLL4
T3 construct: whole, on cells; also called native DLL4 expressed in HEK293 cells
Experimental: (§2) The ability of the purified DLL4 antibodies to inhibit the binding of other DLL4 antibodies to human DLL4 was assessed using a FACS assay. Briefly, antibodies were directly labelled with Alexa-647 using a commercially available labelling kit (e.g. Molecular Probes catalog #A30009, A-20186) as per the manufacturer's instructions. To determine the level of cross-competition, unlabelled anti-DLL4 antibodies (final concentration: 10-0.01 μg/ml) diluted in PBS containing 2% FCS were added to DLL4-expressing HEK 293 cells (as described in example 6; 50000 cells/well diluted in PBS containing 2% FCS) and incubated for 1 h at 4° C. Subsequently, Alexa-647 labeled anti-DLL4 antibodies were added at a final concentration of 0.1 μg/ml and plates were incubated for a further 1 h at 4° C. prior to washing and reading on a FACSCalibur instrument. Data that summarizes the ability of unlabeled antibodies (10, 1, 0.1 μg/ml) to compete with labeled 21H3RK for binding to human DLL4 is included in FIG. 3. Additional data that summarizes the ability of unlabeled antibodies to compete with labeled 21H3RK and 4B4 for binding to human DLL4 is included in Table 22.

full length human DLL4 [3] = biological target: T3, full length human DLL4; experiment: FACS competition, unlabeled antibody vs competitor Alexa-647 21H3RK, HEK293 cells with human DLL4
Experimental: as §2

human Dll1 = biological target: T1, human Dll1; experiment: FACS, 15 µg/ml, 293T cells with human Dll1 vs mock
Summary of the method: as §1

human Jagged1 [4] = biological target: T2, human Jagged1; experiment: FMAT, hybridoma supernatant, 293T cells with human Jagged1
Summary of the method: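 Transfected 293T cells (3000 expressing plus 15000 mock-transfected per well), in PBS with 2% FBS, were mixed with hybridoma supernatant and Cy5 goat anti-human IgG Fc (750 ng/ml final). After 3 h at room temperature, binding was read by FMAT fluorescence. Notch1/Fc served as positive control for DLL4 and Notch3/Fc for Jagged1.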

full length human DLL4 [5] = biological target: T3, full length human DLL4; experiment: FMAT competition, supernatant vs Alexa-647 human Notch1/Fc, 293T cells with human DLL4
Experimental: Transfected and untransfected 239T cells were reconstituted in PBS containing 2% FCS and 5000 transfected and 17500 non-transfected cells were plated in 20 μl into wells of a 384-well tissue culture plate (Corning Costar, catalog #3712). Subsequently, 20 μl of hybridoma supernatant was added and plates were incubated at 4° C. for 1 h, at which time 20 μl of Alexa-647 labeled human Notch1/Fc was added at a final concentration of 6.7 ng/ml. After a further 3 h incubation at 4° C., the amount of bound Notch1/Fc was determined by reading the fluorescence in each well using an FMAT 8200 instrument (Applied Biosystems). Results are expressed as % inhibitions with the minimum inhibition in the assay being determined by the effects of non-DLL4 binding supernatants prepared in a similar way as described in example 2, and the maximum inhibition being defined as the signal obtained in the presence of a saturating concentration of unlabeled Notch1/Fc. N.T.=not tested

T3 sequence (Q9NR61 27-685): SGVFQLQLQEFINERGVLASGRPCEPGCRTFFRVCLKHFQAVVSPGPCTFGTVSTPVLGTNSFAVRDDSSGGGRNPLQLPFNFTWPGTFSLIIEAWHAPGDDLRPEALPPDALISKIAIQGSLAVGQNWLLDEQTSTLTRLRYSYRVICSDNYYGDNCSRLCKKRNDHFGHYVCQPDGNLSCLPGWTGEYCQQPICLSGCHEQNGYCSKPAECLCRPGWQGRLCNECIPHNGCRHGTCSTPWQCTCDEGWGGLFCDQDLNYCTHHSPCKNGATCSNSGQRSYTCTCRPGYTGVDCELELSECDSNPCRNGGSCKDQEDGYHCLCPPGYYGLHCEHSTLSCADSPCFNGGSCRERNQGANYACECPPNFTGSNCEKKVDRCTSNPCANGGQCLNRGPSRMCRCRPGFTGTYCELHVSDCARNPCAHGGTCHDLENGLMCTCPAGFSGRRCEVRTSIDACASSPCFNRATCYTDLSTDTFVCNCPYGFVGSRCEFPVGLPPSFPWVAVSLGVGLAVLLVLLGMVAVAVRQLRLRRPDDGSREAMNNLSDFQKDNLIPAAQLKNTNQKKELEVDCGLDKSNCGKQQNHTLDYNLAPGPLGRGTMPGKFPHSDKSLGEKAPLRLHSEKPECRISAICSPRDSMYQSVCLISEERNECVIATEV
T2 sequence (P78504 34-1218): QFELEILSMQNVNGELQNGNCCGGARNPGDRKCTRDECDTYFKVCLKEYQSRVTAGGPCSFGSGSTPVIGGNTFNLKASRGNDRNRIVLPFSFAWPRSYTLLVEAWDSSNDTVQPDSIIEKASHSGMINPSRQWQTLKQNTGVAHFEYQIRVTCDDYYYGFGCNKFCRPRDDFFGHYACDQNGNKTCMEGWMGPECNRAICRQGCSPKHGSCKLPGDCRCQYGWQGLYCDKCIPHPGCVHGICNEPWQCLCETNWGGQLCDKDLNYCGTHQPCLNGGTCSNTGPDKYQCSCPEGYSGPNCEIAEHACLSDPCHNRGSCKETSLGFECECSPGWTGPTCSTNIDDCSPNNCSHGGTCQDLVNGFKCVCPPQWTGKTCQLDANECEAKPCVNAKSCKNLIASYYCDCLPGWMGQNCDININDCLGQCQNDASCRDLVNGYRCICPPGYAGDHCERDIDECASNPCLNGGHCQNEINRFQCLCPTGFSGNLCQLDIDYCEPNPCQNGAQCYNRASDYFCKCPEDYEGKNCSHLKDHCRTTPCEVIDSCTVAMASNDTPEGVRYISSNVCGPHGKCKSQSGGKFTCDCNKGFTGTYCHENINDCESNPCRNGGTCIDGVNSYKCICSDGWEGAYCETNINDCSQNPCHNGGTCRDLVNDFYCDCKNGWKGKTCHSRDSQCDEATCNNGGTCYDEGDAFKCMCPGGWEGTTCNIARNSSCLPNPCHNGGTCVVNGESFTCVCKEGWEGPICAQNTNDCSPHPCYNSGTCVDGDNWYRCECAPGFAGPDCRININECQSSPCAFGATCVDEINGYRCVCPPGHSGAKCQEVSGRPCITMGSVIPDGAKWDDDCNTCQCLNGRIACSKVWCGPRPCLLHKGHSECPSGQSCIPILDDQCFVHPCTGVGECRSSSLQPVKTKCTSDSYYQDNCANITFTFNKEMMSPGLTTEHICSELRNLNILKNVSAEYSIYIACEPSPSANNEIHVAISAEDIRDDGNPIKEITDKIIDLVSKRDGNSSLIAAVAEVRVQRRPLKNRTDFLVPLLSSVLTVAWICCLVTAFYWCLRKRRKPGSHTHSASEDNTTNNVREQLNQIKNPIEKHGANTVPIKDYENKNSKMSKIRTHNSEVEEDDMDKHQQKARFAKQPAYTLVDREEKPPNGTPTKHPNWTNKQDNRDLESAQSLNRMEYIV

Row | Jagged1/mock ratio (human Jagged1 [1]) | IC50 (full length human DLL4 [2]) | IC50 (full length human DLL4 [3]) | Dll1/mock ratio (human Dll1) | Count (human Jagged1 [4]) | FL1 (human Jagged1 [4]) | FL1 x count (human Jagged1 [4]) | % inhibition n = 1 (full length human DLL4 [5]) | % inhibition n = 2 (full length human DLL4 [5]) | % inhibition n = 3 (full length human DLL4 [5]) | Mean % inhibition (full length human DLL4 [5]) | Binder
1 | 1.07 | 0.856 µg/mL | 0.596 µg/mL | 1.23 | 0 | 0 | 0 | 112% | 98% | 143% | 118% | 9G8 (antibody, IgG4, V domains shown, Fully human; used for IgG4 rows and where no isotype is printed; also called 9G8 IgG4) VH: QLQLQESGPGLVKPSETLSLSCTVSGGSISSSSSYWGLIRQPPGKGLEWIGSIYYSGSTYYSPSLKSRVSISVDTSKNQFSLKLSSVTAADTAVYFCARQGYGGHPDVFDIWGQGTMVTVSS VL: SSELTQSPSVSVSPGQTARITCSGDKLGDVYVCWYQQKTGQSPVLVIYEDTKRPSGIPERFSGSNSGNTATLTISGTQVMDEADYYCQAWDSTTAVIFGGGTKLTVL
2 | 1.12 | 0.274 µg/mL | 0.248 µg/mL | 1.16 | 0 | 0 | 0 | – | – | – | – | 21H3 (antibody, IgG4, V domains shown, Fully human; used for IgG4 rows and where no isotype is printed; also called 21H3 IgG4) VH: QVQLVQSGAEVKKPGASVKVSCKASGYTFTNYGITWVRQAPGQGPEWMGWISAYNGNTNYAQKLQDRVTVTTDTSTSTAYMELRSLRSDDTAVYYCARDRVPRIPVTTEAFDIWGQGTMVTVSS VL: QSVLTQPPSASGTPGQRVTISCSGSSSNIGSYFVYWYQQLPGTAPKLLIYRNNQRPSGVPDRFSGSESGTSASLAISGLRSEDEADYYCAAWDDSLSGHWVFGGGTRLTVL
3 | 1.09 | 0.348 µg/mL | 0.379 µg/mL | 1.23 | 2 | 2590 | 5180 | – | – | – | 121% | 4B4 (antibody, IgG4, V domains shown, Fully human; used for IgG4 rows and where no isotype is printed; also called 4B4 IgG4; 4B4.1) VH: QVLLIQSGAEVKKPGASVQVSCKASGYTFTNYGVIWVRQAPGQGLEYMGWISAYNGNTNYAQKLQDRVTMTSDTSTTTAYMELRSLRSDDTAVYYCARELGSSFDYWGQGTLVTVSS VL: SYELTQPPSVSVSPGQTARITCSGDALPKKYAYWYQQKSGQAPVLVIYEDIKRPSGIPERFSGSSSGTMATLTISGAQVEDEADYYCFSTDNSGDHSVFGGGTKLTVL
4 | 1.26 | 1.15 µg/mL | 0.723 µg/mL | 1.1 | 5 | 5030 | 25200 | 107% | 150% | 124% | 127% | 2H10 (antibody, IgG4, V domains shown, Fully human; used for IgG4 rows and where no isotype is printed; also called 2H10 IgG4) VH: QVQLVESGGGVVQPGRSLRLSCAASGFTFSRHGMHWVRQAPGKGLEWVAVVWFDGSNIYYADSVKGRFTISRDNSKNTLYLQMNSLRAEDTAMYYCARDSRIAAADYWGQGTLVTVSS VL: SYELTQPPSVSVSPGQTVSITCSGDKLGDKYVCWYQQKPGQSPVLVIYQESKRPSGIPERFSGSSSGNTATLTISGTQAMDEADYYCQTWDSSLVVFGGGTKLTVL
